Results from patent US20210171610A1 (US Dept. of Health and Human Services, published 2021).

Key:
[1] = target: T1, Soluble EBV gH/gL complex (poly-histidine tagged) (Epstein Barr Virus, UniProt P03231 19-679; P03212 24-137); test: Biolayer interferometry (Octet), His-tagged gH/gL on HIS1K biosensors, Fab dilution series (top curve labelled 2.50E-08), 300 s association, 900 s dissociation, 1:1 global fit
T1 construct: also called gH/gL Avi-His probe

[2] = target: T2, Soluble EBV gH/gL/gp42 complex (HIS-tagged) (Epstein Barr Virus, UniProt P03231 19-679; P03212 24-137; P03205 33-223); test: Biolayer interferometry (Octet), His-tagged gH/gL/gp42 on HIS1K biosensors, Fab dilution series (top curve labelled 5.00E-08), 300 s association, 900 s dissociation, 1:1 global fit
T2 sequence (P03231 19-679 limits assumed, chain 1 of 3): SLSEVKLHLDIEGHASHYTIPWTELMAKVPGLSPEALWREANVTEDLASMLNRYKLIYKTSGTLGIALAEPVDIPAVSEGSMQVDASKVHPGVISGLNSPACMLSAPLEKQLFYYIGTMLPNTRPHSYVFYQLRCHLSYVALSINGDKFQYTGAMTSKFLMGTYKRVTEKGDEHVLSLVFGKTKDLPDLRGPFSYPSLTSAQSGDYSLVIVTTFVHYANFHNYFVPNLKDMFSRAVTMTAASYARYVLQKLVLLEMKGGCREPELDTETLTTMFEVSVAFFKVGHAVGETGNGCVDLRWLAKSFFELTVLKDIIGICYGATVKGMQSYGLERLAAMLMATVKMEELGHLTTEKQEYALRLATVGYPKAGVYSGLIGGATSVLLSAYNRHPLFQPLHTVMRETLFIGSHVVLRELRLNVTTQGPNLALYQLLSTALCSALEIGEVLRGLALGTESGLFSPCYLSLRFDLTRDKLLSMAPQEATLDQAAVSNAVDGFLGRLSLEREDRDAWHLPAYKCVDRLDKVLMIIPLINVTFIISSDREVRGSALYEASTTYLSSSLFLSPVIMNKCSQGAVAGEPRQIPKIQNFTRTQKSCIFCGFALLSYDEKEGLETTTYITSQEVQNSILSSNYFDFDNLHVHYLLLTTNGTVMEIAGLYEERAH
T2 sequence (P03212 24-137 limits assumed, chain 2 of 3): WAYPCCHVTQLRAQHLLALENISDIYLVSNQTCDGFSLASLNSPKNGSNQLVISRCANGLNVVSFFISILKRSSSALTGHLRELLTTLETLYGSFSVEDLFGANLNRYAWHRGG
T2 sequence (P03205 33-223 limits assumed, chain 3 of 3): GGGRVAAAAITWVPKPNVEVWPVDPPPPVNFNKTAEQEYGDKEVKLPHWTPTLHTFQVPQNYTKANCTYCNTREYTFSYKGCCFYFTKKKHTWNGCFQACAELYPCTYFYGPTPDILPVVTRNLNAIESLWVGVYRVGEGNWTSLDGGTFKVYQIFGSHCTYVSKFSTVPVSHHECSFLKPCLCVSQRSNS

[3] = target: T2, Soluble EBV gH/gL/gp42 complex …; test: Biolayer interferometry (Octet), His-tagged gH/gL/gp42 on HIS1K biosensors, Fab dilution series (top curve labelled 2.50E-08), 300 s association, 900 s dissociation, 1:1 global fit
[4] = target: T2, Soluble EBV gH/gL/gp42 complex …; test: BLI (Octet), His-captured soluble gH/gL/gp42 on HIS1K biosensor, Fab in solution, 1:1 global fit; target gH/gL/gp42 (gp42 present)
[5] = target: T1, Soluble EBV gH/gL complex …; test: Biolayer interferometry (Octet), His-tagged gH/gL on HIS1K biosensors, Fab dilution series (top curve labelled 2.50E-08), 300 s association, 900 s dissociation, 1:1 global fit; remark: listed apart in the source
[6] = target: T1, Soluble EBV gH/gL complex …; test: Biolayer interferometry (Octet), His-tagged gH/gL on HIS1K biosensors, Fab dilution series (top curve labelled 2.50E-08), 1:1 global fit; same panel as FIG. 1C
[7] = target: T2, Soluble EBV gH/gL/gp42 complex …; test: Biolayer interferometry (Octet), His-tagged gH/gL/gp42 on HIS1K biosensors, Fab dilution series (top curve labelled 2.50E-08), 1:1 global fit; same panel as FIG. 1C
[8] = target: T1, Soluble EBV gH/gL complex …; test: BLI kinetics, KD on gH/gL against KD on gH/gL/gp42
[9] = target: T1, Soluble EBV gH/gL complex …; test: BLI (Octet), His-captured soluble gH/gL on HIS1K biosensor, Fab in solution, 1:1 global fit; target gH/gL without gp42
[10] = target: T2, Soluble EBV gH/gL/gp42 complex …; test: Biolayer interferometry (Octet), His-tagged gH/gL/gp42 on HIS1K biosensors, Fab dilution series (top curve labelled 1.00E-07), 300 s association, 900 s dissociation, 1:1 global fit
[11] = target: T1, Soluble EBV gH/gL complex …; test: Biolayer interferometry (Octet), His-tagged gH/gL on HIS1K biosensors, Fab dilution series (top curve labelled 5.00E-08), 300 s association, 900 s dissociation, 1:1 global fit

T1 sequence (P03231 19-679 limits assumed, chain 1 of 2): as the sequence (P03231 19-679 limits assumed, chain 1 of 3) above
T1 sequence (P03212 24-137 limits assumed, chain 2 of 2): as the sequence (P03212 24-137 limits assumed, chain 2 of 3) above

B1: Fab fragment of antibody 770F7 (Fab, V domains shown)
VH: QVQFQQWGAGLLKPSETLSLTCGVYGGSLSGYYWSWIRQTPGKGLEWIGEINHTGTTNYNPSLKSRVTMSVDTSKNQFSLKMSSLTAADTALYYCAREGAPRWALKRPSNWFDPWGQGTLVTVSS
VL: EIVLTQSPVSLSLSPGERATLSCRASQSISSTYLAWYQQIPGQAPRLLIYGASSRAAGIPDRFSGGGSGTDFTLTISRLEPEDFAVYYCQQYGSSPRSFGQGTKLEIK
notes: also called 770F7 Fab
With B1 the Kd [1] was 317 pM, the koff [1] was 0.000165 s⁻¹ and the kon [1] was 520000 M⁻¹ s⁻¹. For the same binder, the Kd [2] was 207 pM, the koff [2] was 0.000128 s⁻¹ and the kon [2] was 619000 M⁻¹ s⁻¹.

B2: Fab fragment of 769B10 (Fab, V domains shown)
VH: EVQLVESGGGIVQPGGSLRVSCAASGFSLSDHYMDWVRQAPGRGLEWVGRSRNKENSFTTEFAASVRRRFTISRDDSNSLLHLQMNNLKSEDTAVYFCARVGYYDLWSGYSGNWYIDVWGRGTLVIVSS
VL: DIQMTQSPSSLSASLGDSVTITCRASQTMSNFLNWYQQKPGKAPKFLIYAASRLQSGVPSRFSGSGSGTQFTLTISNLQPEDFATYYCQQSFIFPYTFGGGTKVEVE
notes: also called 769B10 Fab; B10 Fab
B2 gave a koff [3] of 2.58e-05 s⁻¹, a kon [3] of 564000 M⁻¹ s⁻¹ and a Kd [4] of 458 pM. For the same binder, the koff [5] was 1.51e-05 s⁻¹, the kon [5] was 490000 M⁻¹ s⁻¹ and the koff [6] was 1.51e-05 s⁻¹. For the same binder, the kon [6] was 490000 M⁻¹ s⁻¹, the koff [7] was 2.58e-05 s⁻¹ and the kon [7] was 564000 M⁻¹ s⁻¹. For the same binder, the “fold stronger affinity than for gH/gL/gp42” value [8] was 10 fold and the Kd [9] was 30.7 pM.

B3: Fab fragment of antibody 769C2 (Fab, V domains shown)
VH: EVQLVESGGGLVKPGGSLRLSCAASGFTFSTYAMDWVRQAPGKGLEWVSLISSRSSNIYYSDSVKGRFTISRDNAKNSLFLQMNSLRAEDTAVYYCAREAGGFHSHFDMWGQGTLVTVSS
VL: QSVLTQPASVSGSLGQSVTISCTGTSSDVGGYDYVSWYQQHPGKAPKLMIFEVNNRPSGVSTRFSGSKSGNTASLTISGLQAEDEADYYCNSYSTTTTWVFGGGTSLT
notes: also called 769C2 Fab
In the case of B3, the Kd [10] is reported as 2050 pM, the koff [10] is reported as 0.000425 s⁻¹ and the kon [10] is reported as 207000 M⁻¹ s⁻¹. For the same binder, the Kd [11] was 1160 pM, the koff [11] was 0.000292 s⁻¹ and the kon [11] was 252000 M⁻¹ s⁻¹.
